test: melting temperature; melt of duplexes; settings: sodium 0.0675 M; strand 1 µM

In order of rising Tm:
1. CGACGTGCGGAATGTGCTG+CAGCACATCGTGCACGTCG ((((((((...((((((((+))))))))...))))))))  46.7 °C
2. CGACGTGCGCTATGTGCTG+CAGCACATCCTGCACGTCG ((((((((...((((((((+))))))))...))))))))  48.1 °C
3. CGACGTGCGCTATGTGCTG+CAGCACATTTTGCACGTCG ((((((((...((((((((+))))))))...))))))))  48.3 °C
4. CGACGTGCGCTATGTGCTG+CAGCACATTTGGCACGTCG ((((((((...((((((((+))))))))...))))))))  49.2 °C
5. CGACGTGCGCTATGTGCTG+CAGCACATGTTGCACGTCG ((((((((...((((((((+))))))))...))))))))  49.6 °C
6. CGACGTGCGCGATGTGCTG+CAGCACATTTGGCACGTCG ((((((((...((((((((+))))))))...))))))))  49.7 °C
7. CGACGTGCGCTATGTGCTG+CAGCACATCCAGCACGTCG ((((((((...((((((((+))))))))...))))))))  49.8 °C
8. CGACGTGCGGAATGTGCTG+CAGCACATCGGGCACGTCG ((((((((...((((((((+))))))))...))))))))  50 °C
9. CGACGTGCGCGATGTGCTG+CAGCACATACTGCACGTCG ((((((((...((((((((+))))))))...))))))))  50.3 °C
10. CGACGTGCGCGATGTGCTG+CAGCACATGTTGCACGTCG ((((((((...((((((((+))))))))...))))))))  50.5 °C
11. CGACGTGCGGAATGTGCTG+CAGCACATCTTGCACGTCG ((((((((...((((((((+))))))))...))))))))  50.8 °C
12. CGACGTGCGCGATGTGCTG+CAGCACATGATGCACGTCG ((((((((...((((((((+))))))))...))))))))  51 °C
13. CGACGTGCGCTATGTGCTG+CAGCACATGCTGCACGTCG ((((((((...((((((((+))))))))...))))))))  51.5 °C
14. CGACGTGCGGAATGTGCTG+CAGCACATAAGGCACGTCG ((((((((...((((((((+))))))))...))))))))  51.5 °C
15. CGACGTGCGCGATGTGCTG+CAGCACATTCAGCACGTCG ((((((((...((((((((+))))))))...))))))))  51.7 °C
16. CGACGTGCGCGATGTGCTG+CAGCACATATAGCACGTCG ((((((((...((((((((+))))))))...))))))))  51.8 °C
17. CGACGTGCGCTATGTGCTG+CAGCACATTGTGCACGTCG ((((((((.(.((((((((+)))))))).).))))))))  51.9 °C
18. CGACGTGCGCTATGTGCTG+CAGCACATCGGGCACGTCG ((((((((.(.((((((((+)))))))).).))))))))  52 °C
19. CGACGTGCGGAATGTGCTG+CAGCACATAATGCACGTCG ((((((((...((((((((+))))))))...))))))))  52 °C
20. CGACGTGCGCTATGTGCTG+CAGCACATCCCGCACGTCG (((((((((..((((((((+))))))))..)))))))))  52.1 °C
21. CGACGTGCGCTATGTGCTG+CAGCACATTCCGCACGTCG (((((((((..((((((((+))))))))..)))))))))  52.1 °C
22. CGACGTGCGGAATGTGCTG+CAGCACATGGGGCACGTCG ((((((((...((((((((+))))))))...))))))))  52.9 °C
23. CGACGTGCGCGATGTGCTG+CAGCACATTCGGCACGTCG ((((((((...((((((((+))))))))...))))))))  53.2 °C
24. CGACGTGCGCTATGTGCTG+CAGCACATTACGCACGTCG (((((((((..((((((((+))))))))..)))))))))  53.4 °C
25. CGACGTGCGCGATGTGCTG+CAGCACATTTCGCACGTCG (((((((((..((((((((+))))))))..)))))))))  53.5 °C
26. CGACGTGCGGAATGTGCTG+CAGCACATCAAGCACGTCG ((((((((...((((((((+))))))))...))))))))  53.8 °C
27. CGACGTGCGCGATGTGCTG+CAGCACATCTTGCACGTCG ((((((((..(((((((((+)))))))))..))))))))  53.9 °C
28. CGACGTGCGCGATGTGCTG+CAGCACATCCTGCACGTCG ((((((((..(((((((((+)))))))))..))))))))  54.4 °C
29. CGACGTGCGCGATGTGCTG+CAGCACATGAAGCACGTCG ((((((((...((((((((+))))))))...))))))))  54.4 °C
30. CGACGTGCGCTATGTGCTG+CAGCACATGTCGCACGTCG (((((((((..((((((((+))))))))..)))))))))  54.8 °C
31. CGACGTGCGCGATGTGCTG+CAGCACATTACGCACGTCG (((((((((..((((((((+))))))))..)))))))))  54.9 °C
32. CGACGTGCGCGATGTGCTG+CAGCACATTCCGCACGTCG (((((((((..((((((((+))))))))..)))))))))  54.9 °C
33. CGACGTGCGGAATGTGCTG+CAGCACATACAGCACGTCG ((((((((.(.((((((((+)))))))).).))))))))  54.9 °C
34. CGACGTGCGGAATGTGCTG+CAGCACATCCTGCACGTCG ((((((((.(.((((((((+)))))))).).))))))))  55.2 °C
35. CGACGTGCGCGATGTGCTG+CAGCACATGTCGCACGTCG (((((((((..((((((((+))))))))..)))))))))  55.5 °C
36. CGACGTGCGGAATGTGCTG+CAGCACATAGCGCACGTCG (((((((((..((((((((+))))))))..)))))))))  55.5 °C
37. CGACGTGCGGAATGTGCTG+CAGCACATCCGGCACGTCG ((((((((.(.((((((((+)))))))).).))))))))  55.7 °C
38. CGACGTGCGCGATGTGCTG+CAGCACATGCAGCACGTCG ((((((((...((((((((+))))))))...))))))))  55.8 °C
39. CGACGTGCGCGATGTGCTG+CAGCACATGCCGCACGTCG (((((((((..((((((((+))))))))..)))))))))  55.9 °C
40. CGACGTGCGGAATGTGCTG+CAGCACATAACGCACGTCG (((((((((..((((((((+))))))))..)))))))))  58.6 °C
41. CGACGTGCGCTATGTGCTG+CAGCACATAGAGCACGTCG ((((((((.((((((((((+)))))))))).))))))))  58.7 °C
42. CGACGTGCGGAATGTGCTG+CAGCACATGCAGCACGTCG ((((((((.(.((((((((+)))))))).).))))))))  59.9 °C
43. CGACGTGCGGAATGTGCTG+CAGCACATACCGCACGTCG ((((((((((.((((((((+)))))))).))))))))))  60.2 °C
44. CGACGTGCGGAATGTGCTG+CAGCACATCCCGCACGTCG ((((((((((.((((((((+)))))))).))))))))))  60.3 °C
45. CGACGTGCGGAATGTGCTG+CAGCACATGCCGCACGTCG ((((((((((.((((((((+)))))))).))))))))))  62.1 °C
46. CGACGTGCGCGATGTGCTG+CAGCACATCACGCACGTCG (((((((((.(((((((((+))))))))).)))))))))  62.2 °C
47. CGACGTGCGCGATGTGCTG+CAGCACATCGTGCACGTCG ((((((((.((((((((((+)))))))))).))))))))  62.4 °C
48. CGACGTGCGGAATGTGCTG+CAGCACATGGAGCACGTCG ((((((((...((((((((+))))))))...))))))))  62.8 °C
49. CGACGTGCGCGATGTGCTG+CAGCACATCGAGCACGTCG ((((((((.((((((((((+)))))))))).))))))))  63.1 °C
50. CGACGTGCGCGATGTGCTG+CAGCACATTGCGCACGTCG ((((((((((.((((((((+)))))))).))))))))))  63.5 °C
51. CGACGTGCGCTATGTGCTG+CAGCACATAGCGCACGTCG (((((((((((((((((((+)))))))))))))))))))  66.4 °C
52. CGACGTGCGCGATGTGCTG+CAGCACATCGCGCACGTCG (((((((((((((((((((+)))))))))))))))))))  69.3 °C

Reference: the array DNA melting data of Ke et al.
